Biological target: PRKAR2A, regulatory subunit of protein kinase A (NanoBiT positive control) (UniProt P13861)
Experiment: split reporter

PRKAR2A, regulatory subunit of protein kinase A (NanoBiT positive control), sequence (P13861 whole entry): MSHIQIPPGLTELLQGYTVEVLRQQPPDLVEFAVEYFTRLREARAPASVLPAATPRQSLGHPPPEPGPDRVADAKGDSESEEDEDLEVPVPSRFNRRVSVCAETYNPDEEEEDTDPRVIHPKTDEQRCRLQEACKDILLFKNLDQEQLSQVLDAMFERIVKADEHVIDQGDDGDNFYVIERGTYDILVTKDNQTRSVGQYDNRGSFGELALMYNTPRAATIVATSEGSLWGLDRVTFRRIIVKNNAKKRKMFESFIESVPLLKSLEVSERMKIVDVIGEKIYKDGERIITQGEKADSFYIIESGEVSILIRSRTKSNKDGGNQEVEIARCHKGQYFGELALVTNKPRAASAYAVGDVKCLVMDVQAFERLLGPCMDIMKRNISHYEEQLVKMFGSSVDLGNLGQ

PRKACA, catalytic subunit of protein kinase A (NanoBiT positive control) (from UniProt P17612 1-351) (natural protein)
nanoluciferase activity (RLU): 800000 RLU

— paper PMC9938795
